T1: rhesus CD40 expressed on HEK293A cells (rhesus monkey, UniProt P25942 21-277 (human entry))
T1 construct: also called HEK293A/rhesusCD40
T1 chain: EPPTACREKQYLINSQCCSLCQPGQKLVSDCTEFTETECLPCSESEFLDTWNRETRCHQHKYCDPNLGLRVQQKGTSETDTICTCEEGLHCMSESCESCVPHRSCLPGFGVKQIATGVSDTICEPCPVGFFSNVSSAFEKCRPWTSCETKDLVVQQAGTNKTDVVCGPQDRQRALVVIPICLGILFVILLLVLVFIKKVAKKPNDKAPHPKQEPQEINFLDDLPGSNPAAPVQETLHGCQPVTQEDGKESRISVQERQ

T2: recombinant rhesus CD40 (ECD)-hFc (rhesus monkey, UniProt P25942 21-193 (human entry))
T2 construct: Bought protein; also called rhCD40(ECd)-hFc; monkey CD40 (ECD)-hFc
T2 chain: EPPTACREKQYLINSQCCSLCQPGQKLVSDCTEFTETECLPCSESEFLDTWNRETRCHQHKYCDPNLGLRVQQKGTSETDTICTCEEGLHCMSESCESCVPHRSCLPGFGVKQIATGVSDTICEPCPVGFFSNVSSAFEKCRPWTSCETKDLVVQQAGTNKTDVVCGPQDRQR


Key:
[1] = molecular target: T1, rhesus CD40 expressed on HEK293A cells; assay: FACS, HEK293A/rhesusCD40 cells
Procedure: (§1) Example 5 Mouse Anti-CD40 Monoclonal Antibodies Bound to Human and Rhesus CD40 Expressed on HEK293A Cells To further determine whether anti-CD40 antibodies bound to human, monkey or mouse CD40 expressed on HEK293A cells, a cell-based binding assay by FACS was performed using the HEK293A cells stably overexpressing human, monkey or mouse CD40 as generated in Example 1, respectively. Briefly, 10^5 HEK293A cells were seeded into each well of the 96-well plates and serially diluted anti-CD40 antibodies were added to the plates. After incubated at 4° C. for 1 hour, plates were washed 3 times with PBST. Then, an APC coupled Goat Anti-Mouse IgG (BioLegen, US, Cat #: 405308) diluted 500× was added to the plates. After incubation at 4° C. for 1 hour, the plates were washed with PBS for 3 times and then cell fluorescence was monitored using a FACS machine (BD).

[2] = molecular target: T3, mouse CD40 expressed on HEK293A cells (mouse, UniProt P27512 20-289); assay: FACS, HEK293A/mouseCD40 cells
T3 construct: also called HEK293A/mouseCD40
T3 sequence (P27512 20-289 limits assumed): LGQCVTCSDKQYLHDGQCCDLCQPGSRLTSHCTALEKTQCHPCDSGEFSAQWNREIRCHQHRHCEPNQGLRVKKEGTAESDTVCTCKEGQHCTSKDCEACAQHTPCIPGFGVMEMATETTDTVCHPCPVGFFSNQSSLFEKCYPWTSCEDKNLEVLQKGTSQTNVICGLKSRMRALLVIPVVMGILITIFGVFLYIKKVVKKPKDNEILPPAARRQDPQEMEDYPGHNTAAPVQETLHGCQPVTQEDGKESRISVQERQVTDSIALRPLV

[3] = molecular target: T2, recombinant rhesus CD40 (ECD)-hFc; assay: ELISA, rhCD40(ECD)-hFc coated
Procedure: (§2) ELISA plates were coated with 500 ng/ml human CD40 (ECD)-his (Sino Biological, CN, Cat #: 10774-H08H) at 4° C. overnight. The wells were blocked with 200 μl of blocking buffer (PBS containing 1% BSA, 1% goat serum, and 0.05% Tween 20) for 2 hours at room temperature, and then 100 μl of serially diluted anti-CD40 antibodies (starting from 40000 ng/ml) were added to each well and incubated for 1 hour at RT. Plates were washed for 3 times with PBST (PBS+0.05% Tween 20), added with Goat-anti-mouse IgG-HRP (Simga, US, Cat #: A9309-1 ml) diluted 5000×, and incubated for 1 hour at RT. Plates were developed with freshly prepared Ultra-TMB (BD, US, Cat #: 555214) for 5 minutes at RT. Absorbance was read on a SpectraMax® i3X (Molecular Devies, US) at 450 nm.
Species-cross-reactivity of the 20 CD40 mAbs to monkey or mouse CD40 was further assessed by direct ELISA. Briefly, 500 ng/ml monkey CD40 (ECD)-hFc (Sino Biological, CN, Cat #: 90097-C02H) or mouse CD40-hFc (Sino Biological, CN, Cat #: 50324-M03H) was coated on 96-well ELISA plates followed by incubation with 100 μl of serially diluted anti-CD40 antibodies (starting from 40000 ng/ml). Goat anti-mouse IgG conjugated with HRP (Sigma, US, Cat #: A9309-1ml) was used then.

[4] = molecular target: T4, human CD40 expressed on cells (human, UniProt P25942 21-277); assay: FACS, HEK293A/humanCD40 cells
T4 construct: also called HEK293A/humanCD40
T4 sequence (P25942 21-277 limits assumed): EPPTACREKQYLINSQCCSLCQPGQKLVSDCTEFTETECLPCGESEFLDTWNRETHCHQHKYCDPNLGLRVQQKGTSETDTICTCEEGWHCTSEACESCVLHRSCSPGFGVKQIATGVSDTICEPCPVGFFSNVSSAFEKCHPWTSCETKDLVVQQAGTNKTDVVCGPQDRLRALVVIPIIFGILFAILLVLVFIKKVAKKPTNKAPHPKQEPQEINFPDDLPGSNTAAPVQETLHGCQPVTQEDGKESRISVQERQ
Procedure: as §1

[5] = molecular target: T4, human CD40 expressed on cells; assay: cell-based or functional assay
[6] = molecular target: T5, recombinant human CD40 (ECD)-his (human, UniProt P25942 21-193); assay: ELISA, hCD40(ECD)-his coated
T5 construct: Bought protein; also called hCD40(ECD)-his; TNFRSF5
T5 sequence (P25942 21-193): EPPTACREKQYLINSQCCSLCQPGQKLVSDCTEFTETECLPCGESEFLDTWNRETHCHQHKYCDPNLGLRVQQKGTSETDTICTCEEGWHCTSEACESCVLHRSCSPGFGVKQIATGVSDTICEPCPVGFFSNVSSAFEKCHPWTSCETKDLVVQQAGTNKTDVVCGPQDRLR
Procedure: as §2

mouse CD40-hFc = molecular target: T6, mouse CD40-hFc (mouse, UniProt P27512 20-193); assay: ELISA, muCD40-hFc coated
T6 construct: Bought protein; also called muCD40-hFc
T6 sequence (P27512 20-193): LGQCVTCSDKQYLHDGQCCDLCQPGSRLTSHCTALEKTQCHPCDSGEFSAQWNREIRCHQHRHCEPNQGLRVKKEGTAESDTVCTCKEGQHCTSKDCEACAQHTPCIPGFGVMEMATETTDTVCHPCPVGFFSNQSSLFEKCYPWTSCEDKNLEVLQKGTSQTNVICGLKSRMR

EC50 [1]	binding result [2]	EC50 [3]	EC50 [4]	HEK Blue EC50 [5]	EC50 [6]	binding result (mouse CD40-hFc)	Binder
0.117 µg/mL	no binding	0.0206 µg/mL	0.033 µg/mL	0.0223 µg/mL	0.0214 µg/mL	no binding	77D9 (mouse monoclonal antibody) (antibody, V domains shown) VH: QVKLEESGGGLVKPGGSLKLSCAASGFTFRNYAMSWVRQSPGERLEWVAEVSGSGYYTYYPDTVTGRFTISRDNANNTLYLEVSSLRSEDTAMYYCTSRAYWGQGTLVTVSA VL: IVMTQSPTLSLPVSLGDQASISCRSSQSIVLTNGNTYLEWYLQRPGQSPKLLIYKVSNRFSGVPDRFSGSGSGTDFTLKISRVEAEDLGVYYCFQGSHVPYTFGGGTKLEIK
0.0807 µg/mL	no binding	0.0201 µg/mL	0.0155 µg/mL	0.0648 µg/mL	0.0171 µg/mL	no binding	142F7 (mouse monoclonal antibody) (antibody, V domains shown) VH: EVQLEQSGAELVRPGTSVKVSCKASGYAFTNYLIEWGIQRPGQGLEWIGVINPGTGGTNYNEKFKDKATLTTDKSSSTAYMQLSSLTSDDSAVYFCARGGSGFAYWGQGTLVTVSA VL: DIVLTQTTSSLSASLGDRVTISCRASQDINNYLNWYQQKPDGTVKLLIYYTSRLHSGVPSRFSGSGSGTDYSLTISNLEQEDIATYFCQQGNTLPWTFGGGTKLEIK
0.13 µg/mL	no binding	0.0365 µg/mL	0.0779 µg/mL	0.264 µg/mL	0.0291 µg/mL	no binding	92F6 (mouse monoclonal antibody) (antibody, V domains shown) VH: QVQLEQSGAEVVKPGASVKVSCTASGFNIKDTYMHWVKQRPEQGLEWIGRIDPANGNTNYDPKFQGKATITADTSSNTGYLQLSSLTSEDTAVYYCSRWGYDWYFDVWGAGTSVTVSS VL: DIVITQSTAIMSASPGEKVTITCSASSSVSYIHWFQQKPGTSPKLWIYTTANLASGVPARFSGSGSGTSYSLTISRMEAEDAATYYCQQRSNYPFTFGSGTKLEIK

Continued, binder first:

Binder	EC50 [1]	binding result [2]	EC50 [3]	EC50 [4]	HEK Blue EC50 [5]	EC50 [6]	binding result (mouse CD40-hFc)
50F6 (mouse monoclonal antibody) (antibody, V domains shown) VH: QVQLEQSGDDLVKPGASVKLSCKASGYTFTTYWINWIKQRPGQGLEWIGRISPGSGSTHYNEMFKGKATLTVDTSSSTAYIQLSSLSSEDSAVYFCTRNDYWGQGTTLTVSS VL: DIVLTQSPLSLPVSLGDQASISCRSSQSIVNSNGNTYLEWYLQKPGQSPKLLIYKVSNRFSGVPDRFSGSGSGTDFTLKISRVEAEDLGVYYCFQGSHVPLTFGAGTKLELK	0.137 µg/mL	no binding	0.016 µg/mL	0.134 µg/mL	0.0422 µg/mL	0.0155 µg/mL	no binding
29A10 (mouse monoclonal antibody) (antibody, V domains shown) VH: QVKLEQSGGGLVKPGGSLKLSCAASGFTFSHYYMYWVRQTPEKRLEWVATISDAGSYTYYSDSVKGRFTISRDNAKNNLYLQMSSLKSDDTAMYFCARTYYRGDGGYWFFDVWGAGTAVTVSS VL: DIVITQSTSSLAVSVGEKVTMSCESSQSLLYSSNQKNYLAWYQQKPGQSPKLLIYWASTRESGVPDRFTASGSGTDFTLTISSVKAEDLAVYYCQQYYRSPLTFGAGTKLELK	0.184 µg/mL	no binding	0.0302 µg/mL	0.203 µg/mL	0.14 µg/mL	0.0318 µg/mL	no binding
7B4 (mouse monoclonal antibody) (antibody, V domains shown) VH: EVQLQESGPGLVKPSQSLSLTCSVTGYSITTNYYWNWIRQFPGNKLEWMGYIKYDGSNNYNPSLKNRISITRDTSKNQFFLKLNSVTTEDTATYYCARLDYWGQGTSVTVSS VL: DIVLTQSPLSLPVSLGDQASISCRSSQSLENSNGNTFLNWFLQKPGQSPQLLIYKVSNRFSGVLDRFSGTGSGTDFTLTISRVEAEDLGVYFCLQVTHVPFTFGSGTKLEIK	0.0159 µg/mL	no binding	0.0152 µg/mL	0.0101 µg/mL	0.0261 µg/mL	0.0153 µg/mL	no binding
13A2 (mouse monoclonal antibody) (antibody, V domains shown) VH: EVKLEQSGPGLVKPSQSLSLTCSVTGYSITTNYYWNWIRQFPGNKLEWMGYINYDGSNNYNPSLKNRISITRDTSKNQFFLKLNSVTTEDTATYYCARLDYWGQGTSVTVSS VL: DIVMTQSPLSLPVSLGDQASISCRSSQSLENSNGNTFLNWFLQKPGQSPQLLIYKVSNRFSGVLDRFSGTGSGTDFTLTISRVEAEDLGVYFCLQVTHVPFTFGSGTKLEIK	0.0843 µg/mL	no binding	0.0141 µg/mL	0.0485 µg/mL	0.0126 µg/mL	0.0207 µg/mL	no binding
16A6 (mouse monoclonal antibody) (antibody, V domains shown) VH: EVQLEQSGPGLVKPSQSLSLTCSVTGYSITTNYHWNWIRQFPGNKLEWMGYIKYDGSNNYNPSLKNRISITRDTSKNQFFLKLNSVTTEDTATYYCARLDYWGQGTSVTVSS VL: DIVLTQSTLSLSVSLGDQASISCRSSQSLENSNGNTFLNWFLQKPGQSPQLLIYKVSNRFSGVLDRFSGTGSGTDLTLTISRVEAEDLGVYFCLQVTHVPFTFGSGTKLEIK	0.044 µg/mL	no binding	0.0129 µg/mL	0.0682 µg/mL	0.0114 µg/mL	0.0131 µg/mL	no binding

— patent publication US10654939 (BEIJING MABWORKS BIOTECH, dated 2020)
